Measurements reported in the supplement of paper PMC7877785.
± gives the uncertainty stated by the source.

Assay: self-splicing fitness, log relative to wild type (ln ratio); higher = more splicing; Tetrahymena group I intron in knt gene, E. coli kanamycin selection, DiMSum; sequences stand for … in CUCUCU…GGAGGGAAAAGUUAUCAGGCAUGCACCUGGUAGCUAGUCUUUAAACCAAUAGAUUGCAUCGGUUUAAAAGGCAAGACCGUCAAAUUGCGGGAAAGGGGUCAACAGCCGUUCAGUACCAAGUCUCAGGGGAAACUUUGAGAUGGCCUUGCAAAGGGUAUGGUAAUAAGCUGACGGACAUGGUCCUAACCACGCAGCCAAGUCCUAAGUCAACAGAUCUUCUGUUGAUAUGGAUGCAGUUCACAGACUAAAUGUCGGUCGGGGAAGAUGUAUUCUUCUCAUAAGAUAUAGUCGGACCUCUCCUUAAUGGGAGCUAGCGGAUGAAGUGAUGCAACACUGGAGCCGCUGGGAACUAAUUUGUAUGCGAAAGUAUAUUGAUUAGUUUUGGAGUACUCGUGGUCG
How it was run: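 A randomised library covering all eight P1ex-region intron nucleotides was built with the intron in the knt kanamycin-resistance gene on pET-22b(+) and held in E. coli BL21(DE3). Cells were grown overnight at 37°C or 30°C on LB agar, with or without 25 μg/mL kanamycin, plus 100 μg/mL carbenicillin, 50 μM IPTG and 0.2% rhamnose, and pooled colonies were amplicon-sequenced on an Illumina HiSeq 2500. DiMSum fitness is the error-weighted combination of wild-type-normalised replicate fold changes, kanamycin versus none.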

Sequence | self-splicing fitness (ln) (30 °C) | self-splicing fitness (ln) (37 °C)
UAAAAGCAAUAUUACGGAGU | -3.65 ± 0.2 | -2.45 ± 0.19
UAAAAGCAAUAUUACGGAUG | -0.849 ± 0.077 | 0.0272 ± 0.099
UAAAAGCAAUAUUACGGAUU | -2.12 ± 0.14 | -1.56 ± 0.19
UAAAAGCAAUAUUACGGCGG | -0.373 ± 0.078 | -0.0776 ± 0.11
UAAAAGCAAUAUUACGGGCU | -2.79 ± 0.23 | -2 ± 0.29
UAAAAGCAAUAUUACGGUAG | -1.14 ± 0.086 | -0.722 ± 0.097
UAAAAGCAAUAUUACGGUGC | -3.65 ± 0.42 | -2.92 ± 0.35
UAAAAGCAAUAUUACGUCAG | -1.56 ± 0.074 | -0.962 ± 0.097
UAAAAGCAAUAUUACGUCGA | -1.39 ± 0.1 | -0.424 ± 0.12
UAAAAGCAAUAUUACGUCGC | -3.18 ± 0.24 | -2.44 ± 0.36
UAACAGCAAUAUUACGAGCC | -2.65 ± 0.24 | -2.24 ± 0.49
UAACAGCAAUAUUACGAGGC | -3.62 ± 0.2 | -1.97 ± 0.18
UAACAGCAAUAUUACGAUCA | -0.292 ± 0.074 | 0.115 ± 0.07
UAACAGCAAUAUUACGAUCC |  | -2.04 ± 0.42
UAACAGCAAUAUUACGAUGA | -1.01 ± 0.078 | -0.269 ± 0.088
UAACAGCAAUAUUACGCAGU | -3.43 ± 0.19 | -3.5 ± 0.27
UAACAGCAAUAUUACGCGUA | -0.931 ± 0.063 | -0.365 ± 0.067
UAACAGCAAUAUUACGCGUC | -4.61 ± 0.34 | -2.7 ± 0.18
UAACAGCAAUAUUACGCUGG | -3.29 ± 0.17 | -2.42 ± 0.21
UAACAGCAAUAUUACGGAAG | -2.59 ± 0.12 | -1.93 ± 0.12
UAACAGCAAUAUUACGGAAU | -3.31 ± 0.14 | -2.24 ± 0.15
UAACAGCAAUAUUACGGCCG | -0.568 ± 0.078 | 0.226 ± 0.12
UAACAGCAAUAUUACGGGCU | -4.01 ± 0.21 | -2.3 ± 0.16
UAACAGCAAUAUUACGGUGA | -1.08 ± 0.075 | -0.658 ± 0.082

Sequence | self-splicing fitness (ln) (30 °C) | self-splicing fitness (ln) (37 °C)
UAACAGCAAUAUUACGUAGG | -2.08 ± 0.065 | -1.65 ± 0.079
UAACAGCAAUAUUACGUCGC | -3.59 ± 0.38 | -2.73 ± 0.44
UAACAGCAAUAUUACGUCUC | -3.01 ± 0.12 | -3.02 ± 0.2
UAACAGCAAUAUUACGUGAU | -2.4 ± 0.12 | -1.7 ± 0.17
UAAGAGCAAUAUUACGAGUU | -3.16 ± 0.14 | -2.87 ± 0.23
UAAGAGCAAUAUUACGAUUG | -1.72 ± 0.11 | -0.83 ± 0.12
UAAGAGCAAUAUUACGCAGA | -2.62 ± 0.18 | -2.24 ± 0.23
UAAGAGCAAUAUUACGCCAC | -2.07 ± 0.22 | -1.59 ± 0.29
UAAGAGCAAUAUUACGCCUU | -3.87 ± 0.25 | -2.89 ± 0.48
UAAGAGCAAUAUUACGCGCA | -1.81 ± 0.2 | -1.16 ± 0.3
UAAGAGCAAUAUUACGCUGG | -2.31 ± 0.26 | -2.37 ± 0.27
UAAGAGCAAUAUUACGGCCU | -1.36 ± 0.47 | 
UAAGAGCAAUAUUACGGCGA | -2.7 ± 0.32 | -2.09 ± 0.26
UAAGAGCAAUAUUACGGUCA | -1.77 ± 0.18 | -2.52 ± 0.17
UAAGAGCAAUAUUACGGUCG | -2.81 ± 0.16 | -1.85 ± 0.15
UAAGAGCAAUAUUACGUAGU | -3.21 ± 0.19 | -2.32 ± 0.26
UAAGAGCAAUAUUACGUCAC | -2.67 ± 0.3 | -2.04 ± 0.34
UAAGAGCAAUAUUACGUGUC | -3.09 ± 0.21 | -0.977 ± 0.17
UAAGAGCAAUAUUACGUUGG | -2.87 ± 0.28 | 
UAAUAGCAAUAUUACGAAUA | -2.51 ± 0.34 | -1.28 ± 0.17
UAAUAGCAAUAUUACGACGA | -1.41 ± 0.13 | -1.15 ± 0.14
UAAUAGCAAUAUUACGACUG | -0.137 ± 0.062 | 0.0819 ± 0.078
UAAUAGCAAUAUUACGAUCG | 0.121 ± 0.076 | 0.472 ± 0.099
UAAUAGCAAUAUUACGAUGA | -2.56 ± 0.19 | -1.48 ± 0.16

Sequence | self-splicing fitness (ln) (30 °C) | self-splicing fitness (ln) (37 °C)
UAAUAGCAAUAUUACGCAGG | -1.82 ± 0.1 | -1.48 ± 0.14
UAAUAGCAAUAUUACGCAUA | -1.13 ± 0.18 | -0.681 ± 0.15
UAAUAGCAAUAUUACGCCAA |  | -2.37 ± 0.26
UAAUAGCAAUAUUACGCCAC | -1.32 ± 0.19 | -1.89 ± 0.44
UAAUAGCAAUAUUACGCUGA | -2.81 ± 0.28 | -1.23 ± 0.15
UAAUAGCAAUAUUACGGACG | -0.227 ± 0.12 | 0.175 ± 0.15
UAAUAGCAAUAUUACGGAUU | -2.69 ± 0.36 | -1.02 ± 0.28
UAAUAGCAAUAUUACGGUGA | -3.61 ± 0.3 | -2.39 ± 0.26
UAAUAGCAAUAUUACGUCGG | -2.21 ± 0.11 | -1.49 ± 0.14
UAAUAGCAAUAUUACGUGUU | -1.68 ± 0.14 | -1.97 ± 0.17
UAAUAGCAAUAUUACGUUAA | -3.02 ± 0.23 | -2.53 ± 0.19
UACAAGCAAUAUUACGAGUG | -1.35 ± 0.064 | -0.768 ± 0.071
UACAAGCAAUAUUACGAUGA | -0.422 ± 0.072 | -0.314 ± 0.085
UACAAGCAAUAUUACGCCCU | -0.317 ± 0.085 | -0.111 ± 0.12
UACAAGCAAUAUUACGCCGC |  | -2.06 ± 0.43
UACAAGCAAUAUUACGCCGG | -1.53 ± 0.11 | -0.146 ± 0.18
UACAAGCAAUAUUACGCCUG | -0.585 ± 0.081 | 0.17 ± 0.11
UACAAGCAAUAUUACGCGCG | -0.759 ± 0.088 | 0.0647 ± 0.1
UACAAGCAAUAUUACGGAGU | -4.15 ± 0.29 | -1.71 ± 0.16
UACAAGCAAUAUUACGGCGC | -1.51 ± 0.085 | -0.801 ± 0.099
UACAAGCAAUAUUACGGGGG | -2.66 ± 0.14 | -2.02 ± 0.13
UACAAGCAAUAUUACGGUUG | -2.1 ± 0.11 | -1.91 ± 0.15
UACAAGCAAUAUUACGUAAA | -2.45 ± 0.073 | -1.38 ± 0.087
UACAAGCAAUAUUACGUAGA | -2.84 ± 0.14 | -1.46 ± 0.13

Sequence | self-splicing fitness (ln) (30 °C) | self-splicing fitness (ln) (37 °C)
UACAAGCAAUAUUACGUAGC | -3.5 ± 0.18 | -2.09 ± 0.2
UACAAGCAAUAUUACGUAUG | -3.68 ± 0.17 | -2.11 ± 0.14
UACAAGCAAUAUUACGUCUU | -3.55 ± 0.17 | -1.68 ± 0.13
UACAAGCAAUAUUACGUGGC | -3 ± 0.14 | -1.94 ± 0.22
UACAAGCAAUAUUACGUUCA | -0.621 ± 0.052 | -0.478 ± 0.069
UACAAGCAAUAUUACGUUCG | -0.617 ± 0.074 | 0.321 ± 0.099
UACAAGCAAUAUUACGUUCU | -1.28 ± 0.12 | -0.681 ± 0.12
UACCAGCAAUAUUACGAAAC | -2.69 ± 0.23 | -2.14 ± 0.27
UACCAGCAAUAUUACGAAGG | -2.22 ± 0.11 | -0.865 ± 0.12
UACCAGCAAUAUUACGAAGU | -2.48 ± 0.22 | -2.74 ± 0.28
UACCAGCAAUAUUACGAGUU | -1.28 ± 0.073 | -0.876 ± 0.076
UACCAGCAAUAUUACGCCAC | -3.59 ± 0.2 | -3.17 ± 0.37
UACCAGCAAUAUUACGCCCA | -0.817 ± 0.1 | -0.342 ± 0.14
UACCAGCAAUAUUACGCGCC | -1.46 ± 0.12 | -1.1 ± 0.2
UACCAGCAAUAUUACGCGUA | -1.9 ± 0.074 | -1.67 ± 0.093
UACCAGCAAUAUUACGGAAC | -3.57 ± 0.44 | -3.27 ± 0.27
UACCAGCAAUAUUACGGGAA | -0.38 ± 0.087 | -0.618 ± 0.08
UACCAGCAAUAUUACGGGGA | -1.24 ± 0.083 | -0.746 ± 0.083
UACCAGCAAUAUUACGGGUA | -3.45 ± 0.14 | -3.02 ± 0.15
UACCAGCAAUAUUACGGUGC | -3.21 ± 0.12 | -2.64 ± 0.2
UACCAGCAAUAUUACGUAAG | -3.73 ± 0.15 | -1.99 ± 0.15
UACCAGCAAUAUUACGUAGA | -1.27 ± 0.072 | -0.78 ± 0.091
UACCAGCAAUAUUACGUAUG | -2.62 ± 0.073 | -1.58 ± 0.082
UACCAGCAAUAUUACGUCAA | -1.19 ± 0.079 | -0.33 ± 0.086
